T1: KDM2A ZF-CxxC domain (human, UniProt Q9Y2K7 544-648)
T1 sequence: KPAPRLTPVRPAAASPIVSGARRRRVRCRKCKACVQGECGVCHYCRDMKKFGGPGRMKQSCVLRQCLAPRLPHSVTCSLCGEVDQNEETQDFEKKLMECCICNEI

B1: short probe, CpGs methylated (dsDNA)
DNA 1: GTAGGCGGTGCTACACGGTTCCTGAAGTG
DNA 2: CACTTCAGGAACCGTGTAGCACCGCCTAC
modifications: CpG methylated (5mC); strands and method not stated
B2: short probe with two CpGs (dsDNA)
DNA 1: GTAGGCGGTGCTACACGGTTCCTGAAGTG
DNA 2: CACTTCAGGAACCGTGTAGCACCGCCTAC

Columns and labels:
[1] = system: KDM2A 1-747 (human); assay: SPR; conditions: EMSA: 4% Ficoll 400, 20 mM Hepes pH 7.9, 150 mM KCl, 1 mM EDTA, 0.5 mM DTT, 25 ng/ul poly-dAdT, room temperature, 0.8% agarose gel 0.5x TBE 4 C; SPR: 10 mM …
[2] = molecular target: T1, KDM2A ZF-CxxC domain; assay: EMSA; EMSA: 4% Ficoll 400, 20 mM Hepes pH 7.9, 150 mM KCl, 1 mM EDTA, 0.5 mM DTT, 25 ng/ul poly-dAdT, room temperature, 0.8% agarose gel 0.5x TBE 4 C; SPR: 10 mM Hepes pH 7.9, 150 mM NaCl, 1 mM DTT, further additive truncated in material, KDM2A 0-3 uM; conditions: protein: recombinant; tags: His (pET30b); label: 32P 5' end; blunt

Molecule	Kd [1] [nM]	binding result [2]
75 bp probe, 1 CpG	640	
75 bp probe, 6 CpG	560	
B1		no binding
B2		binds
